Source: doi:10.1101/2021.07.02.450967 (bioRxiv, 2021)
“And” between values parts separate entries of the source, which are not always exact repeats. Equal values may be shown once.

Target: T1, SOX7, made in the cell-free protein production system (UniProt Q9BT81 1-388)
T1 sequence: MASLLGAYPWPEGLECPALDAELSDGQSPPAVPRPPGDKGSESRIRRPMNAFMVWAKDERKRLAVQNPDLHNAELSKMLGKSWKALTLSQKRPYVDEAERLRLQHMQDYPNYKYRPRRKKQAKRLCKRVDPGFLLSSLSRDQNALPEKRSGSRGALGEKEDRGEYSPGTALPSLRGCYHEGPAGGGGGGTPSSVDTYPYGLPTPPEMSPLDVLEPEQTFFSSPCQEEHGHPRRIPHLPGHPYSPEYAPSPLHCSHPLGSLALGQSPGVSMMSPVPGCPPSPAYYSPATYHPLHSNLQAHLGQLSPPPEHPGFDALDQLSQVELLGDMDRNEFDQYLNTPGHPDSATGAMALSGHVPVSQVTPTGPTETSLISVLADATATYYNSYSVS
Test: single molecule two-colour coincidence spectroscopy

B1: HEY1, made in the cell-free protein production system (natural protein)
chain: MKRAHPEYSSSDSELDETIEVEKESADENGNLSSALGSMSPTTSSQILARKRRRGIIEKRRRDRINNSLSELRRLVPSAFEKQGSAKLEKAEILQMTVDHLKMLHTAGGKGYFDAHALAMDYRSLGFRECLAEVARYLSIIEGLDASDPLRVRLVSHLNNYASQREAASGAHAGLGHIPWGTVFGHHPHIAHPLLLPQNGHGNAGTTASPTEPHHQGRLGSAHPEAPALRAPPSGSLGPVLPVVTSASKLSPPLLSSVASLSAFPFSFGSFHLLSPNALSPSAPTQAANLGKPYRPWGTEIGAF
stoichiometry N: 1 HEY1 per SOX7 (1:1) and 2 HEY1 per SOX7 (1:2, order as printed)
